# According to the domain aggregation screens of Martell et al. (2025):
# Test: soluble fraction after stress (log2 fold change); higher = more stays soluble; pooled small domains, quantitative proteomics
# Details: stress: 50 degC
# Outline: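 Pooled custom libraries of small protein domains were each held under stress at 50°C. The read-out, high-throughput quantitative proteomics, tracked how much of each protein stayed soluble. This is reported as a base-two log fold change used to indicate aggregation propensity. Higher values mean more protein remains in solution.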
row,Sequence,soluble fraction (log2)
1,HMIPSGISEHPISKLPLSMSIIHRLELAGIKTIGDITGENFSRLQEIPRIGKVTAKRILEAIQSYSEQLP,-0.15
2,HMSLDLNENEKTIFDIIQNKKTIRLSELKIEAGLSNKGWDKAMKSLTKQGLAKVVKTEDQLTVKLL,-0.0993
3,HMKPTSLLGIERYLGSGLIRGVGPSTAKQIVEHFGMETMEVLTEHPERLQEVHGMGRKRWRQIAESFQEQQ,-0.797
4,HMGLLGTDISAETMIGYFKKIDLGFDEETQEVIVPSWRQDLLRDADIAEEVARFYGYDNIPTTLPSGEST,-0.122
5,HMNIDKLVGSTGTVVRSVTPDTAGLVRVNDEDWRASAEEILYERDAIVVEGIEGVTLIVSKLS,-0.43
6,HMREVSPEDLALMRRIDAWHLEHPFAGARLLRDLLRPEGFQAGRRHIGTLMARMGIEALYRK,-0.458
7,HMGSFGAMLKRNRKLAGLTQEQLAEKLDVSTVAVQNWESGKNQIRSEKLTKLSYLFNIPLETLIHEMLIS,-0.951
8,HMEWTDHLAEELRSLAVEGEHLEIIANKLGISPGSARAKLVNLNIYNDYQLAHIERLEADTLQAK,-0.318
9,HMVDERMVTYINSLDKGNTPFLNELEKEALANYVPIIRREMQSFLKVLLQIKAPLRILEVGTAVGFSTILM,0.199
10,HMTYLIKFDENGRRSDTYVAEEKTQEQVTELLEKGFVLITEEDYQLLVGNVDGKEYIRNADGTYSEYT,-0.0279
11,HMTIDETKKQQVKDGLKDIPGVTVEFVGDKAVLKGAVTDANRVKIMQIVMAAKVLSDASGLTSK,-0.11
12,HMKDHLRFEILSFAGDLRNGVVKTRQEFETIFAFYDKYEEIITALKVHNGYVDSEFDFIKEKFKELKSK,-1.92
13,HMAELNLPVRKIGGEDYYYRQVKKKETIYGISKELGITKEDIIKYNPSVASGLQRNQILYFPVKDFK,-0.0957
14,HMKLTEGETIFLNESDTADWKKIPGIGSVYASRIVKYRNLLGGFVSVNQLREVYGIDDELFAKIYPYI,-0.0044
15,HMVGIVQKTFEPTGIAAEELMKTLKSDKSLDFGNVQILATPKSSTSRQVVVVSGRANDVDRVMMVLSNLDS,-0.108
16,HMREKMKGKILDYNFQESRGIISADDGNRYSFENSQWKGTQSPKVNQIVDFEIDGQNAKDIYLDK,0.162
17,HMGTDVFIMTGGTRKRGATWSYYFDLGKIDGKRQKKEKGGFKTKKEAETALAKAINEYNNAGA,-0.0903
18,HMSSKRDQFIVLGQEILEKMFKNEGLEFSEKGLLAVMPNFEAESINDIYAKVGEGLISGWDVMKAVYPAY,-0.133
19,HMNLESNQYVIDISDSQVINKDEFETILNQNKTKDIVIKSNNNVTFTFEKGSMIGAEGKDNYDFSSQVNY,-0.0368

row,Sequence,soluble fraction (log2)
1,HMIMTGSIQEKNGKYYTVLNIKDKNGKYKKKWQTTGLPVKGNKRKAEQILRRRIAEYEANQL,-0.436
2,HMRGQGRILAMLKIQPEIATKDLAYLLGIRQQSLNELLKKLEKNSYVERRPSEKDRRVMVVHLTEKGKE,-0.715
3,HMDDATDVPYQEFRTQVTSGQVEIAQFNNNTGKISFQSTSGEKFETSGPLELSSDDERLFLENIEDFKFFT,-0.0161
4,HMNQTGQYENAAKRFNQLITIDSSDKRAYLQLGISNYNLGNKEKADSLFNIIRNSKDKLLIEELDNFLT,0.0481
5,HMSVEVPNLIGKTLDQVDIDLKSLDLSFVILDSARYNSSFKPLSVIDHQPISGAKVKVNRKIYLTINPS,-0.445
6,HMNVNTNTILKSLMETYPDSTVFKKAEIVSIANSLGFKKSDYSPLTSTDNRTDVRGQYDLSAVIIPMRESN,-0.13
7,HMPAQPEPYNNLARLYSAQGKLDQAASLLRAGLYTDPAYRALFDNLTRIYAEQAARSLSAALD,-0.907
8,HMIMLDRILKIMDYNKFTPSEFADVLEIDRSRLSHILNGRNKPSLEIVMKILEKFPEISSDWLLFGSGNML,-1.49
9,HMAAEIGSGVVDAYDLRLRSQPSTDAETIIYLDNGAKLSVQEDLGDWYKVVSGTYTGYVSAEYVAYTPSPE,-1.13
10,HMYLPPYMEVRAVMILDGKPMALMYIEGEGDGLIVSPGYKFDNGKGKVVSITPTKVVVLWAGTKMELG,-2.14
11,HMKTRQVTVRNGRIEIFDKRFSTERLVFTAANLPVLEREGEVFTAGIPDSRDFINLWARDGSFAGSVPRV,-1.06
12,HMDTAEQNWRLRGKLVTLGLNARQIRMALASHAPRYLEDNIAVVERDLAAGKVRNLPAYLLAALREDYRP,-1.67
13,HMGIMNFDTWLKSLPGTPTPTIAAKKSGLAAPTLLRHVERGYSTADNVIAIAKAYGVSPIDALVDNGML,-0.695
14,HMQPAALEAQVIKLVRLHAPIKARQLATILANEFGQHVDRSTVNSLLYQLRAQGKVAQNAAYQWSLT,-0.65
15,HMVMLIVMNHTASQADIDKVIEVVSGMGFTAAPIPGGERTAIGVLGNKGYVDDSTIRDLPGVQQAIHVSKP,0.0615
16,HMTVSGNIAGDYKDYLPQKTDVINGMTVTYRMVDDAVYLASWKHAGQNHVFLFNDPVSVERAREMI,-0.577
17,HMDIVKVYTTARAGETLASVAKRTGVDVARLAQWNDIPLKRAKQKLKTGKALALWVQREHASAYSNAPP,-0.151
18,HMPLTPATADAGRFVKQDRKYIRLLAKRYNFTHGDIKSEIDRVSAVLSSNGIDRVPLFLYKEYLEQYLAG,-1.85
